Laboratory results from patent US20250197490A1 (HBM ALPHA THERAPEUTICS, published 2025).
Like-named read-outs stand apart in the source and are kept apart here.

What was measured:
[1] = target: T1, corticotropin-releasing hormone (CRH) peptide (human and mouse, UniProt P01143 145-185 (rat entry), not fully specified); assay: cell-based or functional assay
T1 peptide: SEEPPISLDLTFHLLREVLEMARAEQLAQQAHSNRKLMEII

[2] = target: T1, corticotropin-releasing hormone (CRH) …; assay: cell-based or functional assay
[3] = target: T2, human UCN1 peptide, biotinylated (human, UniProt P55089 83-122, biotin at N- or C-terminus); assay: ELISA, hUCN1 (NT biotin) and (CT biotin)
T2 construct: also called hUCN1 (NT Biotin); hUCN1 (CT Biotin)
T2 peptide (looked up): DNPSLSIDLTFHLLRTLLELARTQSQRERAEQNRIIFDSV
Procedure: Streptavidin (Thermo, Cat: 21125) was diluted in PBS with a concentration of 2 μg/mL. 100 μL of diluted streptavidin was added per well to ELISA microplates, and the plates were incubated overnight at 4° C. Plates were blocked with ELISA blocking solution (containing 2% w/v BSA, 0.05% (v/v) Tween-20, pH 7.4 PBS buffer) at 37° C. for 1 hour, and then incubated with either 1 μg/mL hUCN1 (NT Biotin), hUCN1 (CT Biotin), hUCN2 (NT Biotin), hUCN2 (CT Biotin), hUCN3 (NT Biotin), or hUCN3 (CT Biotin) for 1 hour at 37° C. […] Plates were subsequently washed and incubated with HRP-conjugated goat anti-human IgG (H+L) antibody (Jackson, Cat: 109-035-088) at 37° C. for 1 hour. 100 μl of TMB Substrate (Biopanda, Cat: TMB-S-003) was added, and the plates were incubated at room temperature for 15 minutes. 100 μL of ELISA stopping solution (Solarbio, Cat #: C1058) was then added to terminate the reaction, and the OD450 nm was determined by an ELISA plate reader (Molecular Devices, Spectra max 384 plus).

[4] = target: T3, human UCN3 peptide, biotinylated (human, UniProt Q969E3 120-157, biotin at N- or C-terminus); assay: ELISA, hUCN3 (NT biotin) and (CT biotin)
T3 construct: also called hUCN3 (NT Biotin); hUCN3 (CT Biotin)
T3 peptide (looked up): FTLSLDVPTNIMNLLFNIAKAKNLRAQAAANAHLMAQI

[5] = target: T4, N-Terminal CRH peptide (N-terminal region plus central region, CT biotin) (human and mouse, C-terminal K-Biotin); assay: ELISA, N-Ter-CRH (CT-biotin) on streptavidin
T4 construct: also called N-Ter-CRH
T4 peptide: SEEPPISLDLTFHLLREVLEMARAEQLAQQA
In short: (§1)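 Steps: coat with streptavidin 2 μg/ml overnight at 4° C; wash; add HRP-conjugated goat anti-human IgG (H+L), 37° C for 1 hour; develop with TMB at room temperature 15 minutes; stop and measure OD at 450 nm.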

biotinylated CRH [6] = target: T5, biotinylated CRH (human and mouse, UniProt P01143 145-185 (rat entry), not fully specified; biotin; which end is not stated for the result (NT-biotin and CT-biotin forms were used)); assay: ELISA, CRH (NT biotin)
T5 construct: also called biotin-CRH; CRH (NT biotin)
T5 peptide: T1 peptide
In short: as §1

[7] = target: T6, CRH (Central Region, CT Biotin) (C-terminal K-Biotin); assay: ELISA, CRH central region peptide (CT biotin)
T6 construct: also called Central CRH
T6 peptide: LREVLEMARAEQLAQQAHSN
In short: as §1

[8] = target: T7, human UCN2 peptide, biotinylated (human, UniProt Q96RP3 72-109, limits assumed, biotin at N- or C-terminus); assay: ELISA, hUCN2 (NT biotin) and (CT biotin)
T7 construct: also called hUCN2 (NT Biotin); hUCN2 (CT Biotin)
T7 peptide (looked up): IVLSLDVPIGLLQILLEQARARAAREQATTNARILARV

biotinylated CRH [9] = target: T5, biotinylated CRH; assay: ELISA, CRH (CT biotin)
In short: as §1

[10] = target: T8, CRH (C-Terminal Region, NT Biotin) (N-terminal Biotin-K; C-terminal NH2); assay: ELISA, CRH C-terminal region peptide (NT biotin)
T8 construct: central region plus C-terminal region of CRH; also called C-Terminal CRH; C-Ter-CRH
T8 peptide: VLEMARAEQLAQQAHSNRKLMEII
In short: as §1

[11] = target: T9, CRH (Central Region, NT Biotin) (N-terminal Biotin-K; C-terminal NH2); assay: ELISA, CRH central region peptide (NT biotin)
T9 construct: also called Central CRH
T9 peptide: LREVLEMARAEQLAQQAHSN
In short: as §1

[12] = target: T1, corticotropin-releasing hormone (CRH) …; assay: cell-based or functional assay
[13] = target: T1, corticotropin-releasing hormone (CRH) …; assay: cell-based or functional assay
biotinylated CRH [14] = target: T5, biotinylated CRH; assay: ELISA, CRH (NT biotin)
biotinylated CRH [15] = target: T5, biotinylated CRH; assay: ELISA, CRH (NT biotin)
Procedure: (§2) Streptavidin (Thermo, Cat: 21125) was diluted in PBS to a concentration of 2 μg/ml. 100 μl of diluted streptavidin was added per well to ELISA microplates, and the plates were incubated overnight at 4° C. […] Subsequently, plates were washed and incubated with HRP-conjugated goat anti-human IgG (H+L) antibody (Jackson, Cat: 109-035-088) at 37° C. for 1 hour. 100 μL of 3,3′,5,5′-tetramethylbenzidine (TMB) substrate (Biopanda, Cat: TMB-S-003) was added, and the plates were incubated at room temperature for 15 minutes. 100 μL of ELISA stopping solution (Solarbio, Cat #: C1058) was added to terminate the reaction, and the optical density at 450 nm (OD450 nm) was determined by an ELISA plate reader (Molecular Devices, Spectra max 384 plus).
(§3) These potential PTMs were mutated individually either in HCDR2 alone, in LCDR1 alone, or in various combinations of mutations, as detailed in Table 3. […] Most ΔPTM variants retained functional activities.

biotinylated CRH [16] = target: T5, biotinylated CRH; assay: ELISA, CRH (CT biotin)
[17] = target: T1, corticotropin-releasing hormone (CRH) …; assay: cell-based or functional assay
biotinylated CRH [18] = target: T5, biotinylated CRH; assay: ELISA, CRH (CT biotin)
Procedure: as §2, §3

[19] = target: T1, corticotropin-releasing hormone (CRH) …; assay: cell-based or functional assay
biotinylated CRH [20] = target: T5, biotinylated CRH; assay: ELISA, CRH (NT biotin)
[21] = target: T1, corticotropin-releasing hormone (CRH) …; assay: cell-based or functional assay
biotinylated CRH [22] = target: T5, biotinylated CRH; assay: ELISA, CRH (NT biotin)
biotinylated CRH [23] = target: T5, biotinylated CRH; assay: ELISA, CRH (CT biotin)

B1: PR302341-67 (antibody, human IgG1, kappa, V domains shown)
VH: QVQLVQSGAEVKKPGASVKVSCKASGYTFTDYFMKWVRQAPGQGLEWMGVINPNNGDIFYNQKFKGRVTMTVDKSTSTAYMELSSLRSEDTAVYYCARGTDRALFAYWGQGTLVTVSS
VL: DVVMTQTPLSSPVTLGQPASISCRSGQSIVHSDANTYLEWYQQRPGQPPRLLIYKVSNRFSGVPDRFSGSGAGTDFTLKISRVEAEDLGVYYCFQGSHIPWTFGGGTKVEIKR
[1]
  IC50 (read off the curve), CRH-induced hCRHR1 luciferase reporter: ~200 pM

B2: PR302334-26 (antibody, human IgG1, kappa, V domains shown)
VH: EVQLVESGGGLVQPGGSLRLSCAASGFTFSTYAMSWVRQAPGKGLEWVASIRSGGTTYYPDSVKGRFTISRDNSKNSLYLQMNSLRAEDTAVYYCTRGIDWGQGTTVTVSS
VL: DIVMTQSPDSLAVSLGERATINCKASQSVNNDVAWYQQKPGQPPRLLIYYASNRYTGVPDRFSGSGSGTDFTLTISSLQAEDLAVYFCQQDYSSWTFGGGTKVEIKR
[2]
  hCRHR1-Luc 0.5 nM CRH IC50: 1100 pM
[3]
  binding result: no binding (tested: 100 nM)
[4]
  binding result: no binding (tested: 100 nM)
[5]
  EC50: 29 pM
Biotinylated CRH [6]
  EC50 (read off the curve): ~30 pM
[7]
  binding result: no binding (tested: 100 nM)
[8]
  binding result: no binding (tested: 100 nM)
Biotinylated CRH [9]
  EC50 (read off the curve): ~30 pM
[10]
  binding result: no binding (tested: 100 nM)
[11]
  binding result: no binding (tested: 100 nM)

B3: PR004290 (antibody, human IgG1, kappa, V domains shown)
VH: EVQLVESGGVLVQPGGSLRLSCAASGFTFSSYWMTWVRQAPGKGLEWVANIKQDGSEKYYVDSVKGRFTISRDNAKNSLFLQMNSLRAEDTAVYYCARTLIFDYWGQGTLVTVSS
VL: DIVMTQSPLSLPVTPGEPASISCRSSQSLLHSTGYNSLEWYLQKPGQSPQLLIYLGSNRASGVPDRFSGSGSGTDFTLKISRVEAEDVGIYYCMQTLQTPITFGQGTRLEIKR
notes: human IgG1 wildtype Fc; also called Hybridoma Clone 28b3
[12]
  IC50 (read off the curve), CRH-induced mCRHR1 luciferase reporter: ~5000 pM
[13]
  IC50 in the hCRHR1 reporter assay: ~5000 pM
Biotinylated CRH [14]
  EC50 (read off the curve): ~50 pM
Biotinylated CRH [15]
  EC50 (read off the curve): ~30 pM
Biotinylated CRH [16]
  EC50 (read off the curve): ~10 pM
[17]
  IC50 (read off the curve), CRH-induced hCRHR1 luciferase reporter: ~3000 pM
Biotinylated CRH [18]
  EC50 (read off the curve): ~50 pM
[19]
  IC50 (read off the curve), CRH-induced hCRHR1 luciferase reporter: ~3000 pM
Biotinylated CRH [20]
  EC50 (read off the curve): ~10 pM
[21]
  IC50 (read off the curve), CRH-induced mCRHR1 luciferase reporter: ~8000 pM
Biotinylated CRH [22]
  EC50 (read off the curve): ~10 pM
Biotinylated CRH [23]
  EC50 (read off the curve): ~30 pM
